Consider one molecule from patent US20070122380A1 (UNIVERSITY OF CONNECTICUT, published 2007).

The test addresses T1, c-Met (mouse, UniProt P16056 25-1379).
T1 construct: whole, on cells; also called HGFR; HGF receptor
Description: confocal microscopy of cells stained with anti-IL-7R-alpha and anti-c-Met; co-localisation on scIL-7/HGF-beta-stimulated cells and on pre-pro-B cells of normal BM. An excerpt:
Consistent with these blocking experiments, approximately 60% of the scIL-7/HGF-beta culture-generated CLPs and pre-pro-B cells expressed both c-Met and the IL-7R, whereas more than 80% at the rIL-7 culture-generated pro-B cells expressed the IL-7R only (data not shown). […] However, as noted previously for native IL-7/HGF-beta, scIL-7/HGF-beta was able to “prime” pre-pro-B/pro-B cells to respond to rIL-7 (FIG. 32D), presumably by up-regulating the IL-7R-alpha chain. […] Direct evidence that both the IL-7R (alpha and gamma-c chains) and c-Met are major components of the receptor complex for IL-7/HGF-beta was provided on Western blots after purification of receptor proteins from culture-generated CLPs/pre-pro-B cells on a scIL-7/HGF-beta affinity gel (FIG. 34).

B1: IL-7R (alpha and gamma-c chains) (receptor, mouse)
chain 1: ESGNAQDGDLEDADADDHSFWCHSQLEVDGSQHLLTCAFNDSDINTANLEFQICGALLRVKCLTLNKLQDIYFIKTSEFLLIGSSNICVKLGQKNLTCKNMAINTIVKAEAPSDLKVVYRKEANDFLVTFNAPHLKKKYLKKVKHDVAYRPARGESNWTHVSLFHTRTTIPQRKLRPKAMYEIKVRSIPHNDYFKGFWSEWSPSSTFETPEPKNQGGWDPVLPSVTILSLFSVFLLVILAHVLWKKRIKPVVWPSLPDHKKTLEQLCKKPKTSLNVSFNPESFLDCQIHEVKGVEARDEVESFLPNDLPAQPEELETQGHRAAVHSANRSPETSVSPPETVRRESPLRCLARNLSTCNAPPLLSSRSPDYRDGDRNRPPVYQDLLPNSGNTNVPVPVPQPLPFQSGILIPVSQRQPISTSSVLNQEEAYVTMSSFYQNK
chain 2: WSSKVLMSSANEDIKADLILTSTAPEHLSAPTLPLPEVQCFVFNIEYMNCTWNSSSEPQATNLTLHYRYKVSDNNTFQECSHYLFSKEITSGCQIQKEDIQLYQTFVVQLQDPQKPQRRAVQKLNLQNLVIPRAPENLTLSNLSESQLELRWKSRHIKERCLQYLVQYRSNRDRSWTELIVNHEPRFSLPSVDELKRYTFRVRSRYNPICGSSQQWSKWSQPVHWGSHTVEENPSLFALEAVLIPVGTMGLIITLIFVYCWLERMPPIPPIKNLEDLVTEYQGNFSAWSGVSKGLTESLQPDYSERFCHVSEIPPKGGALGEGPGGSPCSLHSPYWPPPCYSLKPEA
notes: whole, on cells; also called IL-7 receptor
Turning to B1, the binding result is reported as “binds”.
